Data: paper PMC8673838, “MCPH1 inhibits Condensin II during interphase by regulating its SMC2-Kleisin interface” (eLife, 2021)
Non-standard residues stand in square brackets, D forms with d. No end group written: not given here. 5‑FAM = 5-carboxyfluorescein label; pS = N[C@@H](COP(=O)(O)O)C(=O)O

Assays:
Conditions in all cases: both partners purified
[1] = target: T1, human condensin II pentameric complex (SMC2, SMC4, NCAPH2, NCAPD3, NCAPG2) (human, UniProt O95347 1-1197; Q9NTJ3 1-1288; Q6IBW4 1-605; P42695 1-1498; Q86XI2 1-1143); assay: fluorescence polarisation; direct binding; 0.3 µM 5-FAM peptide, 0.625-5 µM condensin II complex; 20 mM Tris pH 7.5, 200 mM NaCl, 1 mM DTT; room temperature
T1 construct: SMC2, human, subunit of condensin II; SMC4, human, subunit of condensin II; NCAPH2, human, kleisin subunit of condensin II; NCAPD3 (CAP-D3), human, HAWK subunit of condensin II; NCAPG2 (CAPG2), human, HAWK subunit of condensin II; It says only 'strep-tagged condensin II'; also called pentameric condensin II; strep-tagged condensin II; source: insect cells, purified as previously described (Kong …)
T1 sequence (O95347 whole entry, chain 1 of 4): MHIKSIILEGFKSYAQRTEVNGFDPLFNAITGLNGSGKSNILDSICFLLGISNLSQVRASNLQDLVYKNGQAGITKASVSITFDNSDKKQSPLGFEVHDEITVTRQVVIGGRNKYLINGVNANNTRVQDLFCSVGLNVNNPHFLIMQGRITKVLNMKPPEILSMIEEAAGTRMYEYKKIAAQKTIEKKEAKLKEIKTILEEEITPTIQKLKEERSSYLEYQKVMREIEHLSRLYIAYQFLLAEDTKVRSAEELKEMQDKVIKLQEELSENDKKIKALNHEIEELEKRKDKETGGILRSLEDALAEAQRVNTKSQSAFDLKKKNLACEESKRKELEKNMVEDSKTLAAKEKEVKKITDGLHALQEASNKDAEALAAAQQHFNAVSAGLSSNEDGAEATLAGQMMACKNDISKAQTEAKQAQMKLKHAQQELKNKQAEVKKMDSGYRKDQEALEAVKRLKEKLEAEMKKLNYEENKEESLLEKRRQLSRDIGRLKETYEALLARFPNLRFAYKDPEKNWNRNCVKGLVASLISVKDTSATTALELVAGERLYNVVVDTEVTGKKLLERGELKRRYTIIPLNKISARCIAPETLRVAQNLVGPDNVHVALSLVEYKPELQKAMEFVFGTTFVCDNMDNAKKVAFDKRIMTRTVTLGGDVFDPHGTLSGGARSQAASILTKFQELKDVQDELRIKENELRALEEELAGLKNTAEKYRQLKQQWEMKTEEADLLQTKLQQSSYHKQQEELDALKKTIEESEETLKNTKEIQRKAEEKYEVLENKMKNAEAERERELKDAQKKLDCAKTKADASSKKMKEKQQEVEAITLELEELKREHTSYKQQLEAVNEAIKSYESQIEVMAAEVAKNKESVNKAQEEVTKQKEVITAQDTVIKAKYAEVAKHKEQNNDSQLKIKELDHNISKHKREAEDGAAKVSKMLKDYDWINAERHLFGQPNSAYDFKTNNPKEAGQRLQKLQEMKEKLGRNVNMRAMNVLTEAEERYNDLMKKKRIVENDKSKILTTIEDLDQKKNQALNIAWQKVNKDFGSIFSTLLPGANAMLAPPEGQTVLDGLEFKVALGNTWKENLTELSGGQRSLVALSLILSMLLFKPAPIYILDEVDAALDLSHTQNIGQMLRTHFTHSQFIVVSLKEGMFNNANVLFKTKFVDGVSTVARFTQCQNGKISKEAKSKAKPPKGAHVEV
T1 sequence (Q9NTJ3 whole entry, chain 2 of 4): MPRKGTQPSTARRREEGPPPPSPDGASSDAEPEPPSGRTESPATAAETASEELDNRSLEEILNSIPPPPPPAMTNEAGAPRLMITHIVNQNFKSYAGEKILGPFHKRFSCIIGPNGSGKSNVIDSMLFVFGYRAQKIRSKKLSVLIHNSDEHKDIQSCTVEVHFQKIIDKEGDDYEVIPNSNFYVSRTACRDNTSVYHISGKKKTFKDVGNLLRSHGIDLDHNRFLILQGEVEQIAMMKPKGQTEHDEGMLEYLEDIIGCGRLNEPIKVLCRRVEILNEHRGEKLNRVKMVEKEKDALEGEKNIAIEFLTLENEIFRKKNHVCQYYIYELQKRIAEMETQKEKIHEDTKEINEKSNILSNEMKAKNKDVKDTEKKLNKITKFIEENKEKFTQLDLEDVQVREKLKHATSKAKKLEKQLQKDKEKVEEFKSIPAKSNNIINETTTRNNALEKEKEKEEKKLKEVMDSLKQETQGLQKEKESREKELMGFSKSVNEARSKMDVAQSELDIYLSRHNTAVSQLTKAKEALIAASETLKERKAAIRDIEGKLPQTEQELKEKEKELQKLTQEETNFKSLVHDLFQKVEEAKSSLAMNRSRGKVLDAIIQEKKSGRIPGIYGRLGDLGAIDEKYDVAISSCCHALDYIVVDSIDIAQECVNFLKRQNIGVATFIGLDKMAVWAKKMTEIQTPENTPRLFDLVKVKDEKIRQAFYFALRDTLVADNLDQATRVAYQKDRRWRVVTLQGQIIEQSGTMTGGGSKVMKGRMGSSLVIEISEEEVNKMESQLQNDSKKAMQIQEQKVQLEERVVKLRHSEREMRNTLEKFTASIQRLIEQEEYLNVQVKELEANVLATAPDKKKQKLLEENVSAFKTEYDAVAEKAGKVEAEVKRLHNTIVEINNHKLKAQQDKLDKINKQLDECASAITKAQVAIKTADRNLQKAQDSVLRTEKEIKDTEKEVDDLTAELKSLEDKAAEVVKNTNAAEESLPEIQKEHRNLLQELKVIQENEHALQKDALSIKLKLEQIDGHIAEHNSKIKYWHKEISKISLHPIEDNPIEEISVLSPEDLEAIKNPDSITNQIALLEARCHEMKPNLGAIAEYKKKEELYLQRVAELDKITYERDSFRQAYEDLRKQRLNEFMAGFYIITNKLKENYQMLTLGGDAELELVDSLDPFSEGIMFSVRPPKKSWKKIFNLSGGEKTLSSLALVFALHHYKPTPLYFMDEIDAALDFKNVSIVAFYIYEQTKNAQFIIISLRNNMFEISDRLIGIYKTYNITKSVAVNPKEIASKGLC
T1 sequence (Q6IBW4 whole entry, chain 3 of 4): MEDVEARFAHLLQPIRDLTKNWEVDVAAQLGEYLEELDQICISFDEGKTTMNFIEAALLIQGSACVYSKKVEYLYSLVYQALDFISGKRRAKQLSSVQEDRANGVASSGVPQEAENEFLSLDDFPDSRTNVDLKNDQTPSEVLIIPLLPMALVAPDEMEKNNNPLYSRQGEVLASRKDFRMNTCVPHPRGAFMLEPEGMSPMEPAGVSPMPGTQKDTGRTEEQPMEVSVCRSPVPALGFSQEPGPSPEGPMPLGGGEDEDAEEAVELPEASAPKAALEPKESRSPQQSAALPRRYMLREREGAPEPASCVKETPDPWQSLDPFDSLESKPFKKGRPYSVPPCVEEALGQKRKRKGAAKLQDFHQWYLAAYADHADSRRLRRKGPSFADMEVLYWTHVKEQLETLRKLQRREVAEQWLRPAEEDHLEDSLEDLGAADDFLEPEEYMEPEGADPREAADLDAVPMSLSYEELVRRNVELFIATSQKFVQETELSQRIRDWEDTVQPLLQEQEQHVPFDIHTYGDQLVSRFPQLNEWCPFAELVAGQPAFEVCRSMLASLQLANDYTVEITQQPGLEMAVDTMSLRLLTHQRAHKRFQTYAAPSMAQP
T1 sequence (P42695 whole entry, chain 4 of 4): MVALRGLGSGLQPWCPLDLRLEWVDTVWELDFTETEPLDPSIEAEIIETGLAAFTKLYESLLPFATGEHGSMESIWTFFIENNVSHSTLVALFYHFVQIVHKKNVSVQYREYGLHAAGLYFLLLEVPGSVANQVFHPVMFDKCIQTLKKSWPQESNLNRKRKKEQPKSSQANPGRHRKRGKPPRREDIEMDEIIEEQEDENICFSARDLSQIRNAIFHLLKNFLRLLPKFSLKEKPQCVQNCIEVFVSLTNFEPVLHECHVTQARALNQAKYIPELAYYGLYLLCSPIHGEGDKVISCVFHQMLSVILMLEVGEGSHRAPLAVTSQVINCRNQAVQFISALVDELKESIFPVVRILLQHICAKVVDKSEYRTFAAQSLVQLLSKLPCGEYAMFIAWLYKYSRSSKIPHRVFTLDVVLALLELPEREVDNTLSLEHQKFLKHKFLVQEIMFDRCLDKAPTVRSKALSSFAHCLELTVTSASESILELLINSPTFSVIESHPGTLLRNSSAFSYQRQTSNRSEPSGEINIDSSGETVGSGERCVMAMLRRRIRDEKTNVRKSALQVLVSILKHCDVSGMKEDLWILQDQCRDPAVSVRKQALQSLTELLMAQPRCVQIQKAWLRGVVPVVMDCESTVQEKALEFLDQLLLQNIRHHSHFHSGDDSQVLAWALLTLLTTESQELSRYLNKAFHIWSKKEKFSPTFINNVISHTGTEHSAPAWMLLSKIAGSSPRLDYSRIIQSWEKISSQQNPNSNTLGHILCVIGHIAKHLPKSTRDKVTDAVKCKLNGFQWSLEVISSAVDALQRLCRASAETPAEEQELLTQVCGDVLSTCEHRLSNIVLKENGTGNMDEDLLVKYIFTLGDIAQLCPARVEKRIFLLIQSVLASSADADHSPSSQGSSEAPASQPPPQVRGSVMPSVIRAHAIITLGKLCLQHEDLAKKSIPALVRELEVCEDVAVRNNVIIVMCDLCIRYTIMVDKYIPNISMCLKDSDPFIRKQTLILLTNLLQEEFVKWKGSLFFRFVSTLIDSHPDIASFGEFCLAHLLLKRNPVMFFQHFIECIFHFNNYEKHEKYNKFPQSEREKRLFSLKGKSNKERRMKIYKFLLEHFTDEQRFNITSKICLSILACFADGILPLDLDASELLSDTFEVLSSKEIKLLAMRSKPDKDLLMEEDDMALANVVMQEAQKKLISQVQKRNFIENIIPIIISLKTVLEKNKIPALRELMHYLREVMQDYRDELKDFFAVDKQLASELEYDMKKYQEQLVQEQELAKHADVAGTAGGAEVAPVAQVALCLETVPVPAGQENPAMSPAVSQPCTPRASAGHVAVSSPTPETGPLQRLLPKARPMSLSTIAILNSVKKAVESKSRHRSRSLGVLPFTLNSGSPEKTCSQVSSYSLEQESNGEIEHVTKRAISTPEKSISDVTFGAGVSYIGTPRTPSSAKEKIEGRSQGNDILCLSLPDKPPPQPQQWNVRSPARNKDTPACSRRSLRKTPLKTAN

[2] = target: T1, human condensin II pentameric complex …; assay: fluorescence polarisation; competition; 0.63 µM condensin II and 0.3 µM 5-FAM peptide fixed, unlabelled peptide in two-fold series; 20 mM Tris pH 7.5, 200 mM NaCl, 1 mM DTT; fit for directly competitive binding
[3] = target: T1, human condensin II pentameric complex …; assay: pull-down; strep-tagged full-length MCPH1 and condensin II separately purified, mixed on strep-tactin sepharose; SDS-PAGE, silver stain
[4] = target: T1, human condensin II pentameric complex …; assay: pull-down; strep-tagged condensin complexes (0.1 µM) with at least a 10-fold molecular excess of MBP MCPH1 constructs or MBP, Strep-tactin sepharose, 20 mM Tris pH 7.5, 150 mM NaCl, 10 % glycerol, 1 mM DTT; five washes; Coomassie or silver stain

B1: 5-FAM-labelled MCPH1_(407-424) peptide (peptide)
peptide: {5‑FAM}-CGESSYDDYFSPDNLKER
notes: also called 5FAM-MCPH1; source: synthetic peptide (Genscript)
**Q.** B1 was tested. Which Kd [1] did it give?
**A.** 640 nM

**Q.** Which Kd [2] does the source give for CGESSYDDYFSPDNLKER (source: synthetic peptide (Genscript)) [MCPH1_(407-424) peptide, wild-type, unlabelled] here?
**A.** 5.3 ± 1 µM

B2: strep-tagged full-length human MCPH1 (natural protein, UniProt Q8NEM0 1-835, looked up)
chain: MAAPILKDVVAYVEVWSSNGTENYSKTFTTQLVDMGAKVSKTFNKQVTHVIFKDGYQSTWDKAQKRGVKLVSVLWVEKCRTAGAHIDESLFPAANMNEHLSSLIKKKRKCMQPKDFNFKTPENDKRFQKKFEKMAKELQRQKTNLDDDVPILLFESNGSLIYTPTIEINSRHHSAMEKRLQEMKEKRENLSPTSSQMIQQSHDNPSNSLCEAPLNISRDTLCSDEYFAGGLHSSFDDLCGNSGCGNQERKLEGSINDIKSDVCISSLVLKANNIHSSPSFTHLDKSSPQKFLSNLSKEEINLQRNIAGKVVTPDQKQAAGMSQETFEEKYRLSPTLSSTKGHLLIHSRPRSSSVKRKRVSHGSHSPPKEKCKRKRSTRRSIMPRLQLCRSEDRLQHVAGPALEALSCGESSYDDYFSPDNLKERYSENLPPESQLPSSPAQLSCRSLSKKERTSIFEMSDFSCVGKKTRTVDITNFTAKTISSPRKTGNGEGRATSSCVTSAPEEALRCCRQAGKEDACPEGNGFSYTIEDPALPKGHDDDLTPLEGSLEEMKEAVGLKSTQNKGTTSKISNSSEGEAQSEHEPCFIVDCNMETSTEEKENLPGGYSGSVKNRPTRHDVLDDSCDGFKDLIKPHEELKKSGRGKKPTRTLVMTSMPSEKQNVVIQVVDKLKGFSIAPDVCETTTHVLSGKPLRTLNVLLGIARGCWVLSYDWVLWSLELGHWISEEPFELSHHFPAAPLCRSECHLSAGPYRGTLFADQPAMFVSPASSPPVAKLCELVHLCGGRVSQVPRQASIVIGPYSGKKKATVKYLSEKWVLDSITQHKVCAPENYLLSQ
notes: MCPH1, human, full length; pLIB MCPH1 from Genscript; also called full-length MCPH1; microcephalin; source: High Five insect cells (baculovirus), purified (StrepTrap, SEC)
**Q.** Does B2 bind [3]?
**A.** binds

B3: MCPH1_(407-424) peptide phosphorylated at serine 417 (peptide)
peptide: CGESSYDDYF[pS]PDNLKER
notes: S417 is phosphoserine; also called MCPH1pS417; source: synthetic peptide (Genscript)
**Q.** With B3 as the binder, how does the Kd [2] read?
**A.** 53 ± 8 µM

B4: MBP-MCPH1_(196-435) (domain or fragment, human, UniProt Q8NEM0 196-435, looked up)
chain: QMIQQSHDNPSNSLCEAPLNISRDTLCSDEYFAGGLHSSFDDLCGNSGCGNQERKLEGSINDIKSDVCISSLVLKANNIHSSPSFTHLDKSSPQKFLSNLSKEEINLQRNIAGKVVTPDQKQAAGMSQETFEEKYRLSPTLSSTKGHLLIHSRPRSSSVKRKRVSHGSHSPPKEKCKRKRSTRRSIMPRLQLCRSEDRLQHVAGPALEALSCGESSYDDYFSPDNLKERYSENLPPESQL
notes: source: E. coli BL21 (DE3) pLysS, purified (Ni-NTA, ion exchange or heparin); not shown: MBP, N-terminal, kept
**Q.** Does B4 bind [4]?
**A.** binds

B5: MBP-MCPH1_(1-435) (domain or fragment, human, UniProt Q8NEM0 1-435, looked up)
chain: MAAPILKDVVAYVEVWSSNGTENYSKTFTTQLVDMGAKVSKTFNKQVTHVIFKDGYQSTWDKAQKRGVKLVSVLWVEKCRTAGAHIDESLFPAANMNEHLSSLIKKKRKCMQPKDFNFKTPENDKRFQKKFEKMAKELQRQKTNLDDDVPILLFESNGSLIYTPTIEINSRHHSAMEKRLQEMKEKRENLSPTSSQMIQQSHDNPSNSLCEAPLNISRDTLCSDEYFAGGLHSSFDDLCGNSGCGNQERKLEGSINDIKSDVCISSLVLKANNIHSSPSFTHLDKSSPQKFLSNLSKEEINLQRNIAGKVVTPDQKQAAGMSQETFEEKYRLSPTLSSTKGHLLIHSRPRSSSVKRKRVSHGSHSPPKEKCKRKRSTRRSIMPRLQLCRSEDRLQHVAGPALEALSCGESSYDDYFSPDNLKERYSENLPPESQL
notes: as for B4
**Q.** Does B5 bind [4]?
**A.** binds

B6: MBP-MCPH1_(348-469) (domain or fragment, human, UniProt Q8NEM0 348-469, looked up)
chain: RPRSSSVKRKRVSHGSHSPPKEKCKRKRSTRRSIMPRLQLCRSEDRLQHVAGPALEALSCGESSYDDYFSPDNLKERYSENLPPESQLPSSPAQLSCRSLSKKERTSIFEMSDFSCVGKKTR
notes: MCPH1, human, residues 348-469; This construct is named in the results only; also called His-MBP-MCPH1 348-469; source: E. coli, purified; not shown: MBP, N-terminal, kept
**Q.** Does B6 bind [4]?
**A.** binds
